Series [1] concerns the target T1, FOXC2-DBD (human, UniProt Q99958 72-171).
T1 sequence: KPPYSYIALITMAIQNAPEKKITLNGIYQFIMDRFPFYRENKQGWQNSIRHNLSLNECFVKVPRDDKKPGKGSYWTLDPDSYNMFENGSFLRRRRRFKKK
Kind of series: EMSA. For orientation: In EMSA bound probe runs differently from free probe, usually more slowly.

Series [2] deals with T1, FOXC2-DBD. Kind of series: crystal structure.
A further series has as its target T2, FOXA2-DBD (human, UniProt Q9Y261-2 163-264).
T2 sequence: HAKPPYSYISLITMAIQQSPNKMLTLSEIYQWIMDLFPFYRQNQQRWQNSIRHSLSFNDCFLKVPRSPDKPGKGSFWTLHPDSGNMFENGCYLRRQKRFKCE
Kind of series: ITC.

The target of another series is T3, FOXM1-DBD (human, UniProt Q08050 222-360).
T3 sequence: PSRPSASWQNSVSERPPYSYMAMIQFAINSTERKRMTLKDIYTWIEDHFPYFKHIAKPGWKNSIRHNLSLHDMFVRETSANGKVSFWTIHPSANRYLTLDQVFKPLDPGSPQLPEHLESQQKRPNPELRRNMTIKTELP
Kind of series: ITC. (In general: Isothermal titration calorimetry measures the heat released or taken up as one component is titrated into another.)

Series [3] deals with T1, FOXC2-DBD. Kind of series: ITC.

Broadly, the Kd is the free concentration of one partner at which half of the binding sites on the other are occupied at equilibrium, for simple one-to-one binding. Read a low Kd as tighter binding.

B1: DNA3 (GTACACA, palindromic) (dsDNA)
DNA 1: ATTTGTGTACACAAAT
DNA 2: ATTTGTGTACACAAAT
With B1, in the series with FOXC2-DBD [1], the binding result is “binds”.

B2: DBE2 (GTAAACA) (dsDNA)
DNA 1: CAAAATGTAAACAAGA
DNA 2: TCTTGTTTACATTTTG
As for B2, the binding result with FOXC2-DBD [2] is listed as “binds”.

B3: GTACACA site (ITC) (dsDNA)
DNA 1: TGCAAAATGTACACAAGACT
DNA 2: AGTCTTGTGTACATTTTGCA
For B3, the Kd with FOXA2-DBD stood at 0.99 µM; with FOXM1-DBD, 8.3 µM; in the series with FOXC2-DBD [3], 2.22 µM.

B4: ACAAATA site (DNA4, ITC) (dsDNA)
DNA 1: TGCAAAATACAAATAAGACT
DNA 2: AGTCTTATTTGTATTTTGCA
Consider B4, for which the Kd in the series with FOXA2-DBD is 7.54 µM; with FOXM1-DBD it was 2.07 µM.

The values are drawn from article PMC6468292.
